Source: paper PMC3888107

Experiments:
[1] = molecular target: PR20, extreme drug-resistant mutant of mature HIV-1 protease (HIV-1); test: enzyme activity against protease concentration
[2] = molecular target: PR, mature HIV-1 protease containing the mutations Q7K, L33I, L63I, C67A, C95A (HIV-1); test: differential scanning calorimetry
[3] = molecular target: ScPR, single-chain dimer of two PR monomers linked by a GGSSG sequence (HIV-1); test: differential scanning calorimetry

PR20, extreme drug-resistant mutant of mature HIV-1 protease (enzyme)
Kd [1]: 29 nM

RPB, substrate (CA/SP1) analogue inhibitor H-Arg-Val-Leu-(r)-Phe-Glu-Ala-Nle-NH2 (peptide)
ΔTm (I), Tm(+inhibitor)-Tm(−inhibitor) [2]: 9.2 °C | ΔTm (I), Tm(+inhibitor)-Tm(−inhibitor) [3]: 7.8 °C
